Laboratory results taken from US20250243277A1 (AVACTA LIFE SCIENCES, published 2025).
Values belong to the binder of their own block, whether it stands above or below them.

What was measured:
[1] = molecular target: T1, human PD-L1-Fc (R&D Systems) (human, UniProt Q9NZQ7 19-239); assay: SPR (Biacore); huPD-L1-Fc captured on Protein A chip, Affimer as analyte 0.125 to 2 nM; ILF homodimer (avidity), huPD-L1-Fc captured on Protein A chip
T1 construct: Bought from R&D Systems; Biotinylated in-house for the phage selection; also called huPD-L1-Fc; human PD-L1-Fc antigen; not shown: Fc part of the bought fusion
Protocol: (§1) Secreted AFFIMER® clones were purified from supernatant using Ni Sepharose Excel resin (Cytiva) as described in Example 2 and run-on SEC-HPLC to assess their purity and molecular weight (FIG. 11). BIACORE™ was run using a sensor chip Protein A (Cytiva) capturing huPD-L1-Fc (R&D System), and AFFIMER® clones were run in solution as analyte increasing from 0.125 to 2 nM titration and a dissociation time of 2000 seconds. Regeneration of the antigen captured on the chip was performed using a 10 mM glycine pH1.5 solution. […] Avidity was further shown in both the PD-L1 binding ELISA and the Promega cell-based assay, with the ILF dimer blocking the PD-L1:PD1 interaction more strongly than a mammalian produced monomer (FIGS. 13-14).

[2] = molecular target: T1, human PD-L1-Fc (R&D Systems); assay: SPR (Biacore): huPD-L1-Fc captured on a Protein A sensor chip, HEK-expressed Affimer as analyte rising from 0.125 to 2 nM, 2000 s dissociation
Protocol: as §1

[3] = molecular target: T1, human PD-L1-Fc (R&D Systems); assay: PD-L1 binding ELISA (direct binding, absorbance 450nm - 630nm rises with the Affimer concentration). Column head on the sheet reads 'IC50 nM' although the curve is a half-maximal binding curve; the text does not name the PD-L1 reagent on the plate
[4] = molecular target: T1, human PD-L1-Fc (R&D Systems); assay: SPR (Biacore); huPD-L1-Fc captured on Protein A chip, Affimer as analyte 0.125 to 2 nM; monomer, huPD-L1-Fc captured on Protein A chip
Protocol: as §1

T1 sequence (Q9NZQ7 19-239 limits assumed): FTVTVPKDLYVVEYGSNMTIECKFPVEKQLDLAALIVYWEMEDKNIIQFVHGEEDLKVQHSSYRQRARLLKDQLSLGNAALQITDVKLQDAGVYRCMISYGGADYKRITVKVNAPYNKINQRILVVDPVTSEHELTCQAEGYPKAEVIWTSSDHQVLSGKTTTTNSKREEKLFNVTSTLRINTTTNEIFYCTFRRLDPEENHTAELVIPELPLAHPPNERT

Kd [1]: 0.0103 nM
koff [2]: 4.56e-05 s⁻¹
kon [2]: 4.44e+06 M⁻¹ s⁻¹
IC50 [3]: 0.05 nM
B1: Clone 80 ILF (designed binder)
chain: MIPGGLSEAKPATPEIQEIVDKVKPQLEEKTGETYGKLEAVQYKTQVVRRKHFPQWPGTNYYIKVRAGDNKYMHLKVFKSLDLQPREVFQEDLVLTGYQVDKNKDDELTGFAEAAAKEAAAKEAAAKEAAAKEAAAKEAAAKMIPGGLSEAKPATPEIQEIVDKVKPQLEEKTGETYGKLEAVQYKTQVVRRKHFPQWPGTNYYIKVRAGDNKYMHLKVFKSLDLQPREVFQEDLVLTGYQVDKNKDDELTGF
notes: Two Clone 80 units in one chain joined by the rigid linker A(EAAAK)6; also called in-line fusion (ILF) homodimer; Dimer ILF format

koff [2]: 0.0014 s⁻¹
kon [2]: 2.58e+06 M⁻¹ s⁻¹
IC50 [3]: 0.26 nM
Kd [4]: 0.54 nM
B2: Clone 80 monomer (mammalian, HEK-expressed) (designed binder)
chain: MIPGGLSEAKPATPEIQEIVDKVKPQLEEKTGETYGKLEAVQYKTQVVRRKHFPQWPGTNYYIKVRAGDNKYMHLKVFKSLDLQPREVFQEDLVLTGYQVDKNKDDELTGF
notes: also called mammalian produced monomer; mammalian expressed AFFIMER Clone 80 monomer
